Patent US8298536B2, “Methods of treating inflammatory pain” (Pfizer Limited, priority 2008, dated 2012)
Where a chain is given by its changes, count along the chain named. Blank lines part the entries; values can stand above or below the molecule they belong to.

Key:
rat α-CGRP = target: T1, rat α-CGRP (Rattus norvegicus, UniProt P01256); test: Biacore binding affinity, N-biotinylated rat α-CGRP on chip
T1 construct: CGRP (calcitonin gene-related peptide) is a 37 amino acid neuropeptide
T1 sequence (P01256 83-119 limits assumed): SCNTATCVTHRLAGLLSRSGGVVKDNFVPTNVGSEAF
Excerpt: (§1) G1 was titrated over the chip surface Binding affinities were deduced from the quotient of the kinetic rate constants (KD=koff/kon) see Table 1.

rat β-CGRP = target: T2, rat β-CGRP (Rattus norvegicus, UniProt P10093, R105S); test: Biacore binding affinity, N-biotin β-rat CGRP on chip; settings: 37 ° C.
T2 construct: CGRP (calcitonin gene-related peptide) is a 37 amino acid neuropeptide
T2 sequence (P10093 89-125 R105S limits assumed): T1 sequence (P01256 83-119 limits assumed) with E35K
Excerpt: as §1

CNS penetration = settings: in vivo
adrenomedullin = target: T3, adrenomedullin (Homo sapiens, UniProt P35318); test: Solution competition by Biacore: adrenomedullin; format: binding; settings: pre-incubation with an excess of peptide
T3 sequence (P35318 95-146 limits assumed): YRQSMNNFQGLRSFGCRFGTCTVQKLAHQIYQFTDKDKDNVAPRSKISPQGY
Excerpt: (§2) FIG. 5: Solution competition by Biacore: CGRP, CGRP fragments or peptides related in sequence to CGRP were used to determine the specificity of G1.
(§3) We determined the specificity of antibody G1 to human or rat CGRP by using the Biacore chip to “probe” the free concentration of a premixed complex of mAb+peptide.

rat = test: Gastro-intestinal adverse effects in-vivo study
calcitonin = target: T4, calcitonin (Homo sapiens, UniProt P01258); test: Solution competition by Biacore: calcitonin; format: binding; settings: pre-incubation with an excess of peptide
T4 sequence (P01258 85-116 limits assumed): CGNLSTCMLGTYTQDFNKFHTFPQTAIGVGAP
Excerpt: as §2, §3

rats = test: Long term observation for adverse CNS events (dependence indicators); format: in vivo, rat; settings: in comparison to control animals
[1] = tested on: neurogenic skin flare rat model; test: Neurogenic skin flare model (saphenous nerve stimulation, laser Doppler blood flow); format: in vivo; settings: for start of significant decrease in blood flow response / development of neurogenic flare in vivo: rat
Description: FIG. 7: Data showing G1 inhibits neurogenic flare in the skin starting from 90 min post-treatment. G1 was administered by intravenous administration (1 ml/kg). Data are from 6-8 or 13 rats per group. *p=0.05, **p=0.01 vs vehicle (phosphate buffered saline) treated group at each time point (AVOVA).
Using a neurogenic skin flare rat model the efficacy of G1 was tested for its ability to block CGRP effect in vivo. The saphenous nerve in the rat is electrically stimulated causing CGRP release from nerve endings and leading to vasodilation, the resulting changes in blood flow can be measured using laser Dopler methods.
Changes in blood flow parameters were expressed as the area under the curve (AUC, change in arbitrary Doppler flux units multiplied by time). CGRP receptor antagonist CGRP8-37 (400 nmol/kg, i.v.) was used as a positive control to validate the specificity of the model (data not shown). To determine the effect of G1 prior to dosing for each animal, the baseline blood flow response to stimulation was established with two saphenous nerve stimulations each 30 minutes apart. Rats were treated with G1 after the blood flow response of the second stimulation had returned to baseline levels (approximately 10 minutes post stimulation) and an additional four stimulations at 30 minute intervals were performed.

amylin = target: T5, amylin (Homo sapiens, UniProt P10997); test: Solution competition by Biacore: amylin; format: binding; settings: pre-incubation with an excess of peptide
T5 sequence (P10997 34-70 limits assumed): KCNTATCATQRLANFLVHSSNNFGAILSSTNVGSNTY
Excerpt: as §2, §3

human α-CGRP [2] = target: T6, human α-CGRP (Homo sapiens, UniProt P06881); test: Binding assay: blocking human α-CGRP from binding to the CGRP1-receptor in SK-N-MC cells; set-up: CGRP (calcitonin gene-related peptide) is a 37 amino acid neuropeptide; host or cells: SK-N-MC cells (endogenous receptor); settings: FIG. 2
T6 sequence (P06881 83-119 limits assumed): T1 sequence (P01256 83-119 limits assumed) with S1A, N3D, D25N, E35K

human β-CGRP = target: T7, human β-CGRP (Homo sapiens, UniProt P10092); test: Biacore binding affinity, N-biotin β-human CGRP on chip; settings: 37 ° C.
T7 construct: CGRP (calcitonin gene-related peptide) is a 37 amino acid neuropeptide
T7 sequence (P10092 82-118 limits assumed): T1 sequence (P01256 83-119 limits assumed) with S1A, V22M, D25S, E35K
Excerpt: as §1

[3] = tested on: OA hind limb of the rat (MMT); test: Osteoarthritis pain model (transection of the medial meniscus, MMT), weight bearing; format: in vivo
Description: FIG. 1: Osteoarthritis pain model. […] Both antibodies were dissolved in a vehicle solution containing PBS+0.01% Tween 20. Celecoxib was used as positive control in the study. It was suspended in 0.5% methylcellulose and 0.025% Tween-20 and was administered by oral gavage (1 ml/kg) at 30 mg/kg, twice a day throughout the study period. Pain responses were assessed on day 2, 3, 7 and 10 following initiation of the pharmacology study (day 0) and were assessed in a fully blinded fashion. Data re the mean±SEM of 6 rats per group. *p<0.05 and p<0.01 vs baseline value (Dunnett's test in GraphPad Prism). In the figure, from left to right, bar 1=baseline, bars 2-5=null antibody, bars 6-9=1 mg/ml G2, bars 10-13=10 mg/ml G2, bars 14-17=Celecoxib 30 mg/ml.
Transection of the medial meniscus (MMT) in one hind knee of the rat results in the development of cartilage lesions and other changes in the joint similar to those that occur in OA. The resulting joint pain leads to the development of sustained changes in weight bearing (assessed using an incapacitance meter) in the rat hind limbs and mechanical (tactile) allodynia (assessed using von Frey filaments), in the hind paw, lasting several weeks. Studies were carried out accordingly to a blind protocol, where the investigator was not aware of the identity of the compound/control or the treatment of the animal.

human or rat CGRP = test: Solution competition by Biacore: human or rat CGRP; format: binding; settings: premixed mAb+peptide
Excerpt: as §2, §3

[4] = target: 25-37 human α-CGRP fragment (Homo sapiens, UniProt P06881); test: Epitope identification, alanine scan of C-terminal CGRP fragment (Biacore 3000); format: binding; settings: 25° C.
Description: (§4) FIG. 4: Alanine scan using a C-terminal CGRP fragment (CGRP 25-37).
(§5) Interaction analysis was conducted at 25° C. on a Biacore 3000™ system equipped with streptavidin-coated (SA) sensor chips (Biacore AB, Uppsala, Sweden) using a standard Biacore running buffer (HBS-P). […] Each amino acid between position 27-37 was then mutated individually to alanine and expressed the fold loss in affinity compared to the wild-type fragment. […] Purified Fab fragments of antibody G1 were generated. Fab fragments were titrated over the chip using 1 μM as the top concentration of a two-fold dilution series. Association and dissociation phases were monitored at 100 μl/min for 1 minute and 5 minutes respectively. Surfaces were regenerated with a mixture of 35% ethanol+25 mM NaOH+0.5M NaCl.

[5] = tested on: 25-37 human α-CGRP fragment; test: as above; format: binding; settings: Fab fragments, positions 27-37 mutated to alanine, 25° C.
Description: as §4, §5

human α-CGRP [6] = target: T6, human α-CGRP; test: Biacore binding affinity, N-biotinylated human α-CGRP on chip; set-up: as full-length N-biotinylated human α-CGRP
Excerpt: as §1

[7] = Plasma exposure of antibody in the OA pain study; format: in vivo; settings: rat
Description: This effect lasted 10 days post administration when the plasma exposure of antibody G2 achieved an average value of 65.1±3 ug/ml (6.3±0.3 ug/ml, for the lower dose at 10 days post IV).

- koff (rat α-CGRP; 25 ° C.): 6.18e-05 s⁻¹
- kon (rat α-CGRP; 25 ° C.): 50800 M⁻¹ s⁻¹
- koff (rat α-CGRP; 37 ° C.): 0.000399 s⁻¹
- kon (rat α-CGRP; 37 ° C.): 155000 M⁻¹ s⁻¹
- koff (rat β-CGRP): 7.85e-05 s⁻¹
- kon (rat β-CGRP): 516000 M⁻¹ s⁻¹
- complex formation with adrenomedullin (adrenomedullin): did not form a complex
- complex formation with calcitonin (calcitonin): did not form a complex
- complex formation with amylin (amylin): did not form a complex
- koff (human β-CGRP): 6.98e-05 s⁻¹
- kon (human β-CGRP): 451000 M⁻¹ s⁻¹
- affinity of N-biotinylated 25-37 human α-CGRP fragment vs full-length N-biotinylated human α-CGRP [4]: bound with the same affinity
- koff (human α-CGRP [6]; 25 ° C.): 7.8e-06 s⁻¹
- kon (human α-CGRP [6]; 25 ° C.): 186000 M⁻¹ s⁻¹
- koff (human α-CGRP [6]; 37 ° C.): 3.63e-05 s⁻¹
- kon (human α-CGRP [6]; 37 ° C.): 587000 M⁻¹ s⁻¹
Molecule: G1: humanized IgG2Δa monoclonal anti-CGRP antagonist antibody, vectors ATCC PTA-6867 and PTA-6866; variable regions SEQ ID Nos. 1 and 2 [Antibody G1]
- CNS penetration / crossing of blood brain barrier (CNS penetration): Neither antibody G1 nor antibody G2 demonstrate CNS penetration
- adverse gastro intestinal effects on behaviour, food intake, stool production or histopathology (rat; 1 week comparative study): no adverse gastro intestinal effects were observed
- adverse CNS events such as sedation or stimulation/euphoric behaviour (rats): did not reveal adverse CNS events
- effect in further neurogenic flare and vasodilatation model tests ([1]; 7 days post IV dosing): marked effect
- start of inhibition of neurogenic flare in the skin ([1]; FIG. 7, intravenous administration): 90 min post-treatment
- start of significant decrease in blood flow response ([1]; 1 mg/kg IV): 120 minutes post dose
- start of significant decrease in blood flow response ([1]; 10 mg/kg IV): 90 minutes post dose
- development of neurogenic flare in vivo [1]: prevent the development of neurogenic flare in vivo
- predicted ED50 ([1]; saphenous nerve stimulation model): 6 µg/mL
- inhibition of binding of α-CGRP to the CGRP1 receptor (human α-CGRP [2]): inhibits the binding of α-CGRP to the CGRP1 receptor
- shift in weight bearing on the OA limb ([3]; repeat experiments, buffer as negative control): reversed the shift in weight bearing on the OA limb to normal value
- Biacore response after pre-incubation with human or rat CGRP (human or rat CGRP): fully blocked
- alanine scan result, binding region (epitope) [5]: binds to the C-terminal region of human α-CGRP, particularly residues 25 to 37

B1: G2: anti-rat CGRP mouse monoclonal antibody (Wong H C et al. 1993); variable regions SEQ ID Nos. 19 and 20; RN4901 = murine tool in Table 1 legend (antibody, V domains shown)
VH: EVQLQQSGPELVKPGASVKMSCKASGYTFTSSVMHWVKQKPGQGLEWIGYINPYNDGTKYNEKFKGKATLTSDKSSSTAYMELSSLTSEDSAVYYCAKGGNDGYWGQGTTLTVSS
VL: EIVLTQSPTTMAASPGEKITITCSASSSISSIYLHWYQQKPGFSPKVLIYRASNLASGVPARFSGSGSGTSYSLTIGTMEAEDVATYYCQQGSTIPFTFGSGTKLEIK
modifications: Synthetic polypeptide, Antibody G2 heavy chain variable region; Synthetic polypeptide, Antibody G2 light chain variable region
- CNS penetration / crossing of blood brain barrier (CNS penetration): Neither antibody G1 nor antibody G2 demonstrate CNS penetration
- adverse gastro intestinal effects on behaviour, food intake, stool production or histopathology (rat; 1 month study): no adverse gastro intestinal effects were observed
- adverse CNS events such as sedation or stimulation/euphoric behaviour (rats): did not reveal adverse CNS events
- development of neurogenic flare in vivo [1]: prevent the development of neurogenic flare in vivo
- plasma exposure, average value ([7]; 10 mg/kg IV, 10 days post administration): 65.1 ± 3 µg/mL
- plasma exposure, average value ([7]; lower dose, 10 days post IV): 6.3 ± 0.3 µg/mL
- duration of effect on weight bearing ([3]; 10 mg/kg, IV): 10 days post administration
- weight bearing deficit of the OA hind limb ([3]; 10 mg/kg, IV): reversed weight bearing deficit of the OA hind limb
- weight bearing deficit of the OA hind limb ([3]; lower dose (1 mg/kg, IV)): No effect
